Source: the supplement of paper PMC9170038

Tested on: MS2 coat protein
Assay: apparent KD of MS2 coat protein; higher = weaker reporter binding
Conditions: Eterna round: R107
Summary of the method: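 Designed RNA switches were transcribed on-chip from Illumina sequencing clusters. SNAP-549-labelled MS2 coat protein was titrated onto them in twofold steps from 0.7 or 1.5 nM to 3 µM in 100 mM Tris-HCl pH 7.5, 80 mM KCl, 4 mM MgCl2, either without or with constant ligand. Apparent KD reflects the per-design median of normalised cluster binding-curve fits.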

[1] = input ligand: theophylline 20 uM
[2] = input ligand: theophylline 2 mM
[3] = input ligand: tryptophan 2.4 mM

UUAAUCAUUGAUGAAAACAUUAAUGCAGAAGGAGCGUGAUAAAACACAGGUAGGUCGCUGAAGGGAACAUGAGGAUCACCCAUGU [AstrosSSArgA#16]
apparent KD of MS2 coat protein (input ligand: arginine 13.2 mM): 27.3 nM
apparent KD of MS2 coat protein (input ligand: none): 28.1 nM
apparent KD of MS2 coat protein [1]: 36.5 nM
apparent KD of MS2 coat protein [2]: 33.6 nM
apparent KD of MS2 coat protein [3]: 30.8 nM

UUAAUCUUAGAAGAAAACUUUUAAGCAGAAGGAGCGUGAUAAAACACAGGUAGGUCGCUGAAGGGAACAUGAGGAUCACCCAUGU [AstrosSSArgA#18]
apparent KD of MS2 coat protein (input ligand: arginine 13.2 mM): 29.3 nM
apparent KD of MS2 coat protein (input ligand: none): 22 nM
apparent KD of MS2 coat protein [1]: 28.9 nM
apparent KD of MS2 coat protein [2]: 29.4 nM
apparent KD of MS2 coat protein [3]: 23.1 nM

UUACAUGAGGAUCACCCAUGUCAUAAUGAUACCAGAUAGUUGAUGAUCCCUUGGCAGCAUAGUACCUAGACAUGUGAGUCAUAGG [Ab]
apparent KD of MS2 coat protein (input ligand: arginine 13.2 mM): 116 nM
apparent KD of MS2 coat protein [1]: 130 nM
apparent KD of MS2 coat protein [3]: 76.8 nM

UUAGAUAUGACAGAUACCAGCGUGUUGUUGAACAUGAGGAUCACCCAUGUAGUGAUCGAGCGCCCUUGGCAGCUGGUGUGUUUGG [7.Q]
apparent KD of MS2 coat protein (input ligand: arginine 13.2 mM): 77.6 nM
apparent KD of MS2 coat protein [1]: 174 nM
apparent KD of MS2 coat protein [3]: 225 nM

UUAUCUAUAUUCGAUACCAGUACCCUGGCCGCAAAUCCUAACAUGAGGAUCACCCAUGUGUACCCUUGGCAGCGGGUAUGGGUUU [XTheo B #29]
apparent KD of MS2 coat protein (input ligand: arginine 13.2 mM): 21.5 nM
apparent KD of MS2 coat protein [1]: 35.1 nM
apparent KD of MS2 coat protein [3]: 24.2 nM

UUAUUUAACGGAAGGAGCGCGGAAAUUAAGGUGGGUAAACAUGAGGAUCACCCAUGUAAUCCGCAGGUAGGUCGCCGAUAUUUAU [#24 Exclusion - Arginine B]
apparent KD of MS2 coat protein (input ligand: arginine 13.2 mM): 86.1 nM
apparent KD of MS2 coat protein (input ligand: none): 156 nM
apparent KD of MS2 coat protein [1]: 136 nM
apparent KD of MS2 coat protein [2]: 119 nM
apparent KD of MS2 coat protein [3]: 112 nM

UUCGUUUACGGAAGGAGCGACGGACAUCGGUGAUCUAUGCACAUGAGGAUCACCCAUGUACGUCAGGUAGGUCGCCGUUAAGAGU [XArg-B28]
apparent KD of MS2 coat protein (input ligand: arginine 13.2 mM): 28.4 nM
apparent KD of MS2 coat protein (input ligand: none): 80.8 nM
apparent KD of MS2 coat protein [1]: 96.5 nM
apparent KD of MS2 coat protein [2]: 184 nM
apparent KD of MS2 coat protein [3]: 9.59 nM

UUGAUUACCCAAGCGUGAUGGUCCUAGGAACGAGGACCGGUACGGCCGCCACUCGCAAGCAAACAUGAGGAUCACCCAUGUUUAU [theeternabot_exclusion_MS2_Trp_A_19]
apparent KD of MS2 coat protein (input ligand: arginine 13.2 mM): 11.2 nM
apparent KD of MS2 coat protein [1]: 15.9 nM
apparent KD of MS2 coat protein [2]: 14.1 nM

UUGGCACGGACGGCCGCCACUCUUUCACAUGAGGAUCACCCAUGUUAUCUAGUCCUCAGCAGAAAGAGGACCGGGUCGGAGUUGG [theeternabot_exclusion_MS2_Trp_B_13]
apparent KD of MS2 coat protein (input ligand: arginine 13.2 mM): 75.1 nM
apparent KD of MS2 coat protein [1]: 168 nM
apparent KD of MS2 coat protein [2]: 214 nM

UUGGGUAUGCGAAGGAGCGGGAAAUAUAUAUAUAUAAUCCUAACAUGAGGAUCACCCAUGUCCCAGGUAGGUCGCGCAUAUUUGG [12.J]
apparent KD of MS2 coat protein (input ligand: arginine 13.2 mM): 40.6 nM
apparent KD of MS2 coat protein (input ligand: none): 62.9 nM
apparent KD of MS2 coat protein [1]: 88.9 nM
apparent KD of MS2 coat protein [2]: 106 nM
apparent KD of MS2 coat protein [3]: 67.8 nM

UUGGUUAUGCGAAGGAGCGGGAAAUAUAUAUAUAUAAUCCUAACAUGAGGAUCACCCAUGUCCCAGGUAGGUCGCGCAUAGUUGG [12.I]
apparent KD of MS2 coat protein (input ligand: arginine 13.2 mM): 45.2 nM
apparent KD of MS2 coat protein (input ligand: none): 69.5 nM
apparent KD of MS2 coat protein [1]: 80.3 nM
apparent KD of MS2 coat protein [2]: 83.3 nM
apparent KD of MS2 coat protein [3]: 69.1 nM

UUUACAUGAGGAUCACCCAUGUGCCAUGAUACCAGACAUGAAAAUGUCCCUUGGCAGCAUGAAUGAUUCAUAGGAUAAUUAUGGG [Obrany]
apparent KD of MS2 coat protein (input ligand: arginine 13.2 mM): 69.4 nM
apparent KD of MS2 coat protein [1]: 146 nM
apparent KD of MS2 coat protein [3]: 80.9 nM

UUUACAUGAGGAUCACCCAUGUGCCAUGAUACCAGACAUGAAAAUGUCCCUUGGCAGCAUGAGUGAUUCAUCCGAAAGGAUGUUU [Jehnice]
apparent KD of MS2 coat protein (input ligand: arginine 13.2 mM): 114 nM
apparent KD of MS2 coat protein [1]: 146 nM
apparent KD of MS2 coat protein [3]: 103 nM

UUUACAUGAGGAUCACCCAUGUUCCAUGAUACCAGACAUGAAAAUGUCCCUUGGCAGCAUGAAUGAUUCAUAGGAUAAUUAUGGG [Medlanky]
apparent KD of MS2 coat protein (input ligand: arginine 13.2 mM): 79.7 nM
apparent KD of MS2 coat protein [1]: 116 nM
apparent KD of MS2 coat protein [3]: 72.6 nM

UUUGAUUAGAGAAGGAGCGUGAUAUUUAUAUAGUGUGUAUGUACAUGAGGAUCACCCAUGUCACAGGUAGGUCGCUCUGAUAAGG [JR_Nu_ExcArginiB_Sub030]
apparent KD of MS2 coat protein (input ligand: arginine 13.2 mM): 14.8 nM
apparent KD of MS2 coat protein (input ligand: none): 13.2 nM
apparent KD of MS2 coat protein [1]: 21.6 nM
apparent KD of MS2 coat protein [2]: 13.2 nM
apparent KD of MS2 coat protein [3]: 16.1 nM

UUUUAAGGGAUCGGAGCUGGUAGCAGAGAUACCAGAGUAGUAAUGCUCCCUUGGCAGCUCAGUACAUGAGGAUCACCCAUGUUUU [Exclusion Theophylline A GF26]
apparent KD of MS2 coat protein (input ligand: arginine 13.2 mM): 16.3 nM
apparent KD of MS2 coat protein (input ligand: none): 17.6 nM
apparent KD of MS2 coat protein [1]: 21 nM
apparent KD of MS2 coat protein [2]: 25.3 nM
apparent KD of MS2 coat protein [3]: 17.9 nM
